Assay results taken from a protein production outcome set (Wang et al. 2014).

Test: label from the status in PepcDB records

| Sequence | protein production |
| --- | --- |
| MFTINTKSQLPIYEQIVQKIKEQVVKGILQEGEKILSIREFASRIGVNPNTVSKAYQELERQEVIVTVKGKGTFIADQTEKNSSPKKLAETKIKLKEIILDLVYLGINVEEIHKLSVEYSQDIIGGDKI | failed |
| MFTLFAIQFFTTAAAVAFLLTELMGGFMLLFDWKNSGQKIMTYVAPIWEVTGTFLAMFVVETDATFAGILIPAAFAFAALLLIFLILFIVRNVAIILGEFAGSRKIFTDRQLYYIYVIATLLISVVFLAFSSAIISGNGVKIDIAGNPVDSLLSVSNAEISFNLASWLAGPGDILFVVSAALIAFGLSPVFYDVDRFSTYGVISSVIGFILGIVSFVQMGVHISPIIIIPAIIIIGVPILYRIGLAKKILTNKALFIVLLIVSIYSLYFTVYPSAMNGKLPLSQIITTGPMVIGTILTTVVGFTLLAFMLSLYVYVNYRSSRNQMTTLPK | failed |
| MFVGVDHAGRDWSWKEPGSTKACRNFMITLFAEWALPATTGQASGRRAMARKFMVPALAVLAFAIAAPAFAQVPANIAKAVADPSRPAAETARDAARRPGEILAMAELKPGDTVVDYIMGGGYFTRIISGAVGPQGVVYAYQPAEFIRFAARYGESLKAVTAALANSKPLDGPITALDLPDNVDAVITVQNYHDMHLKPFPTDTAAKANAEIFKSLKPGGVFLVIDHSAIAGSGITAADTLHRIDIAAVKQEVEAAGFKLEAESGLLADPADARTINVFDPAIRGKTDQFILKFRKPK | failed |
| MFVHLSVELMQHLSAAALAFTVVTYVVLDGTDLGVGMLFAANRSDADRHLMAYSILPVWDGNETWLVLGGGSLLAMFPSAYAIFLNATYVPLVVMLLALICRGVALEYRDQLGTDRRRRVLDVVFMVASLLATFCQGVVAGTYLAGVAHRAGQYAGNGREWLQPFPLFCGVALVVGYLLLGACWLVWRSEGQLQQRARHQARVLGIVLGALLTLGVVWLARLTPIYAQRLGDAHISVPLGTSVLGLMVAMYLLMRSRHAFLPLFAVLGVVVATYAGVLAIVYPMVLPPDITLAQAASPPASQGVMLLAFAVLVPCTLAYSSYGFYVFRGKVKPRGHAAE | failed |
| MFVNSNGYNLGVREDEVVVNDVDLPPWAKKPEDFVRINRMALESEFVSCQLHQWIDLIFGYKQRGPEAVRALNVFHYLTYEGSVNLDSITDPVLREIPEAYFIRDPHTFLLTKDFIKAMEAQIQNFGQTPSQLLIEPHPPRSSAMHLCFLPQSPLMFKDQMQQDVIMVLKFPSNSPVTHVAANTLPHLTIPAVVTVTCSRLFAVNRWHNTVGLRGAPGYSLDQAHHLPIEMDPLIANNSGVNKRQITDLVDQSIQINAHCFVVTADNRYILICGFWDKSFRVYSTETGKLTQIVFGHWDVVTCLARSESYIGGDCYIVSGSRDATLLLWYWSGRHHIIGDNPNSSDYPAPRAVLTGHDHEVVCVSVCAELGLVISGAKEGPCLVHTITGDLLRALEGPENCLFPRLISVSSEGHCIIYYERGRFSNFSINGKLLAQMEINDSTRAILLSSDGQNLVTGGDNGVVEVWQACDFKQLYIYPGCDAGIRAMDLSHDQRTLITGMASGSIVAFNIDFNRWHYEHQNRY | failed |
| MFVTLQTVQESEKEILRNLYALYLHDLSTFTSNITIGANGFFEYEDLHMFWVNDGITPYFIKSDNEIVGFLLLLERPFLKKENDFGINDIFILNQYKGKGIGKQVIESLLKEKRGQYFVIELVKNVPAVSFWKKVYRELNIEFDEKIQLIDDEECLVQTFEI | failed |
| MFYFMTLSFIIMPALGCFLIGLVLAKSDRWTFSWILSLIGLVAFISSFWHIERADLWFMLSYSFGPFLMGFGFTWDLSNKRRMQLLLLGLFFLIFFMILYYLIVRILNTAVV | failed |
| MFYILNNVLKNIKTLDNVKSKFFLKDSFLKNKLKANNLDDNLSSHIFFNEIFVSLRDDEKKEEHKKVLLFNKVRNDKKHRKRAFQKRGYWKKMHYFIRKNNMMSYAFKVQNIDYEKIKKLKRGEVYSN | failed |
| MGAVTDDEVIRKRLLIDGDGAGDDRRINLLVKSFIKWCNSGSQEEGYSQYQRMLSTLSQCEFSMGKTLLVYDMNLREMENYEKIYKEIECSIAGAHEKIAECKKQILQAKRIRKNRQEYDALAKVIQHHPDRHETLKELEALGKELEHLSHIKESVEDKLELRRKQFHVLLSTIHELQQTLENDEKLSEVEEAQEASMETDPKP | failed |
| MGCGFSRQHVVKTNVSSFDRELLDLKIQRDSLQQYEQRLSDSLKNYIKLARRLVAENQRQQALVVLQVKHALQKSIEKAQNMRFNLEQVLSEIELKQIETDYVLKLRTGTKLLQSIQKTLSIEEIEHLLEETKEAIEFQNKVTEVLGSFSLMEIDESCEEELEQLETAMFPPVPKRLEKTMTPQVTENMQVKSETAKEYSKQESILLPS | not failed |
| MGCVRDLTQRGMRQGAKPVRYFGERTDVSDLLAHTLQTVADILGPHGPATKAAEHSYTPNDYSIHFFLQLAVILLACRVTGWFGKKFLAQPQVVGEMIAGVVLGPSLLGLLFPDFQLSLFPKETRNILYVGAQLGVGLYMFLVGASFQAGHFKTKARSAMSVSFAGIAAPFAIAVIITPFLLKVPGLFAPTITPGAATLFMGACIALTAFPMLARIINERGLQKTSLGTLSLTAGAFDDAVSWCVLAVVLAMFGGGPGVAVLAIGGGLLWVLFVLTLGPKILAPLGRMVEREGELSAHALALVILAFCVSAFLMDAVGIHAIFGGFIMGVVMPRGLLTQELKKKVEPLVVVLLLPMFFTYSGLNTRLDMVNSLDLLLIALGILACSILAKWGACYVAARATGEDHATAMGIGALMNSRGLMELIIINIGLQKGIIGPTLFAMLVLMAIVTTMMASPLFEIVYGKKARERGELDAVPDAKRA | failed |
| MGCYHPLSGTDGTLMRHTLPIAPQFYVTAPQPCPYLAGRMERKLFTALQGEGAERLNNALSQQGFRRSQNVLYRPSCADCAACLSARIDVSAFRASRSQKRAMRRNAHLTRRATSPWATDEQYELFRRYLDSRHADGGMADMDVFEFAAMIEETPIRSRVIEYAHRDTRALIGVSLTDVLDDGLSMVYSFYDPDLHRDSLGTHMILDHIAIAREAGLPYVYLGYWVPGSPKMGYKSRFSGLEIYLGGRWQAMTDPEAHDAIRHPLSTDPIAEQVANIQLPDRWPTGD | failed |
| MGCYHPLSGTDGTLMRHTLPIAPQFYVTAPQPCPYLAGRMERKLFTALQGEGAERLNNALSQQGFRRSQNVLYRPSCADCAACLSARIDVSAFRASRSQKRAMRRNAHLTRRATSPWATDEQYELFRRYLDSRHADGGMADMDVFEFAAMIEETPIRSRVIEYAHRDTRALIGVSLTDVLDDGLSMVYSFYDPDLHRDSLGTHMILDHIAIAREAGLPYVYLGYWVPGSPKMGYKSRFSGLEIYLGGRWQAMTDPEAHDAIRHPLSTDPIAEQVANIQLPDRWPTGDLEHHHHHH | failed |
| MGDPFLIGGVIIACFVAFNIGGATTGPAFGPAVGANVLSKTTAGALMAVAFFGGAYTIGRRVVDTLGTELVHDPSVFTLEASIIVLFFIGGALLVGNLSGAPASTSMTAVGAIIGLGLASGELNFAVVGEILAWWILSPIIGFWLAVMVGRYGYEALDRRVAIEQSDGPLLAFERVELGRWPVVRLRESPVVRMERISPKLWPALGPNTSWREAVGTAVLVSIGFLMAFSSGTSNIANAIAPLVGSGALAMNPGILIGCGAVAVGALTIARRTMETLGNDITDLPLTAAIVVALLSSLIIIALSALGIPASFVVVATLCIIGLGWGRSTQAVSVAEAVRGDVSPQVSVGALARGDDATVGTVRSQSAPQGASRRTAPVRSDLFDPGTSVRVVLMQNVVPLLATGGSYLTFWLLPVGG | failed |
| MGDRVNLEGIVIDIEQTNDQLSFNVTDENESVPVVYDGPMPETMSVGRTVVAKGYYNGSVVEAESLSIRAHEGLEHHHHHH | not failed |
| MGEAAKDQTEEVIQAWYLDNKEEDQKLPHHKDPKEFVSLDKLAELGVLCWRLDADNYETDEELKRIRESRGYSYMDLCEVCPEKLPNYEEKVKMFFEEHLHIDEEIRYCLAGSGYFDVRDLNDIWIRVWVKKGGLIVFPAGIYHRFTVDSDNYMKAMRLFVGGPVWTAYNRPHDHLPARKAYMKKFLKVIGDRNIDASA | failed |
| MGEAATKSDRQQNQTRLWLNILRLHGLVFGDLNRQLLDETGLSLAKFDAMAQLARNPDGLSMGKLSGALKVTNGNVSGLVNRLIKDGMVVKAMSADDRRSFSAKLTDAGLTTFKQASEAHNRILAELLRAVSDQDMVEASAALRGILESMQTGASLD | not failed |
